Laboratory results: the nanobody polyreactivity screen of Harvey et al. (2022)

Assay: yeast display, Sf9 membrane polyspecificity reagent, FACS + sequencing; frameworks hold sequencing errors
How it was run: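 A synthetic nanobody library was expressed on Saccharomyces cerevisiae BJ5465 by galactose induction for 36–48 hours. The library was stained for 1 hour at 4 °C with 10% biotinylated, detergent-solubilized Sf9 membrane reagent and enriched with streptavidin microbeads before FACS. Low and high (top ~1%) gates were set on anti-HA fluorescence for expression and streptavidin fluorescence for reagent binding, and each polyreactivity label reflects the gate of origin.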

Row | Sequence | polyreactivity (PSR sort gate)
1 | QVHRVESGGGLVQAGGSLRLSCAASGSIFSYYDLGWYRQAPGNERELVAAISWDGGDRTYADSVKGRFTISRDNAKNNVYLQMNSLKPEDSAVYYCAKNTGSYRRVNLDYWGQGTQVTVSS | low polyreactivity
2 | QVKLKESVGGLVQAGGSLRLSCAASGSISATGHMGWYRQAPGEERELVAAINFGSNTYYADSVKGLFTISRDNAINTVYLQKSGLKPEDTAVYYWAVDGWYVGPYYYWGQGTQVTVSS | high polyreactivity
3 | QVKLVESAGGLVQAGGSRRLSCAASGSIFRAYAMGWYRQAPGKESELVADISRSGGSTYYADSVKGRFTISRDNAKNNVYLQMNSLIPEDTAVYYCNRLPQYALPYRHNGYWGQGTQVTVSS | low polyreactivity
4 | QVKLVESGAGLVQAGGSLRLSCAASGIIFAQYTMGWYRQAPGKERELVAAINRNGGSTYYADSVKGRFTISRDNAKNTVYLQMNSLKPEDTAVYYCNAEALGFRYDYWGQGTQVTVSS | low polyreactivity
5 | QVKLVESGGCLVQEGGSLRLSCAASGSIFGHYVMRWYRQAPGKERELVAAINRGGSTYYADSVKGRFTISRDNAKNTVYLQMNSLKPEDTAVYYCAAGYPSWYYGYPYDSWGQGTQVTVSS | low polyreactivity
6 | QVKLVESGGGIVQAGGSLRLTCAASGSTVRLYAMGCYRQAPGKERELVAAISTRGSSTYYADSVKGRFTISRDNAKNTVYLQMNSLKPEDTAVFYCAADAYFIYSRYWYDYWGQGTQVTVSS | high polyreactivity
7 | QVKLVESGGGLDQAGGSLRLSCSASRSTFWHYAMGWYRQAPGKERELVASISGRGTSTYYADSVKGRFTISRDNAKNTVFFQMNSLKPEDTAVYYCAATKWFGAFDYWGQGTQVTVSS | low polyreactivity
8 | QVKLVESGGGLVQAGGSIRLSCAASGRIFTTYTMGWYRQAPGKERELVAAITRGDRTNYADSVKGRFTISRDNAKNTVYLQMNSLIPEDTAVYYCAAVGNWYYRDPLHSRFYYWGQGTQVTVSS | high polyreactivity
9 | QVKLVESGGGLVQAGGSLRLRCAASGSIFRFYVMGWYRQAPGKERELVAAISSGGSTDYADSVKGRFTISRDNAKNTVYLQMYSLKPEDTAVYYCGARVRTVRNTYYSWGQGTQVTVSS | high polyreactivity
10 | QVKLVESGGGLVQAGGSLRLSCAASGFIIGGYGMGWYRQAPGKERELVAVITASGGSTYYADSVKWLFTISRDNAKNTVYLQMNSLKPEDTGVYYCAARVGRYGYSQYYYWGQGTQVTVSS | high polyreactivity
11 | QVKLVESGGGLVQAGGSLRLSCAASGFTFTQYGLGWNRQAPGKEREFVATIRFSGDNTYYADSVKGRFTISRDNAKNTVYLQMNSLKPEDTAVYYCNADNRAFFVYPVSKRYDSWGQGTQVTVSS | low polyreactivity
12 | QVKLVESGGGLVQAGGSLRLSCAASGLIFDTYAMGWYRQAHGKERELVADITLSGGSTYYADSLKGRFTISRDTAKNTVYLQMNSLKPVDTAVYYCAADSVSLFYWDQRYPDEYDYWGQGTQVTVSS | low polyreactivity
13 | QVKLVESGGGLVQAGGSLRLSCAASGNTLYFNAMGWYRQAPGKERELVADISWGGGSTDYADSVKGRFTISRDNAKNTVYLQMNSLKPEDTAVYYCAADILSLPEYDYWGQGTQVTVSS | low polyreactivity
14 | QVKLVESGGGLVQAGGSLRLSCAASGRIFSYNAMGGYRPEPGKESEVVAAMSDGGGRTYYADSVKGRFTISRDNAKNTVYVQMNSLKPEDTAVYYCAARYSVYYFGQRNGRYGYWGQGTQVTVSS | high polyreactivity
15 | QVKLVESGGGLVQAGGSLRLSCAASGRNFYVYGMGWYRQAPGKERELVASITYRCGSTSYADSVKGRFTISRDNAKNTVYLQMNSLKPEDTAVYYCNADTYYRSDYWGQGTQVTVSS | high polyreactivity
16 | QVKLVESGGGLVQAGGSLRLSCAASGRTVTRNTMGWYRQAPGKERELVAAISRSGGGTYYADSVKGRFTISRDNAKNTVYLQMNSLKPEDTAVYYCAAVPQNYRNFDGYNYWGQGTQVTVSS | high polyreactivity

Row | Sequence | polyreactivity (PSR sort gate)
17 | QVKLVESGGGLVQAGGSLRLSCAASGSIFSRNTMGWSRQEPGKERELVAGISSSGSRTYYADSVKGRFTISRDNAKNTVYLQMNSLKPEDTAVYYCAKAWPDHWYSRYDYWGQGTQLTVSS | low polyreactivity
18 | QVKLVESGGGLVQAGGSLRLSCAASGSIVVRYTMGWYRQAPGKERELVAAIYWGGGSTYYADSVKGRFTISRDNAKNTVYLQMNSLKAEDTAVYYCKKRYILLYDYWGQGTQVTVSS | low polyreactivity
19 | QVKLVESGGGLVQAGGSLRLSCAASGSTFHVYAMGWYRQEPGKESELVAGITSSGYSTYYADSVKGRFTISRDNAKNTVYLKMNSLKPEDTAFYYCNADIRGPYYYHRYDYWGQGTQVTVSS | low polyreactivity
20 | QVKLVESGGGLVQAGGSLRLSCAASGSTYHSNAMGWYRRAHGKEMEFVASISIGGSTNYADSVKGRYTISRDNAKNTVYLQMNSLKAEDTAVYYSATEPNPRRPRVDYDYWGQGTQVTVSS | low polyreactivity
21 | QVKLVESGGGLVQAGGSLRLSCCASGSTFSPNTMGRYRQAPGKDREVVAAITYRGANTYYADSVKGRFTISRDNAKLTVYLQMNSLKPEDTAVYYCSAVYAYHHVGFGYWGQGTQVTVSS | low polyreactivity
22 | QVKLVESGGGLVQAGGSLRLSCDASGSTFIANTMGWYRQAPGKERELVAAITDSGGSTYYADSVKGRFTISRDNAKNTVYLQMNSLKPEDTAVYYCNADYVYVFIRAWSYDYWGQGTQVTVSS | low polyreactivity
23 | QVKLVESGGGLVQAGGSLRLSCPASGSTFYYNAMGWYRQAPGKERELVARISRSGGSTYADSVKGRFTISRDNAKNTVYLQMNSLKPEDTAVYYCNADAYGTPEFTSYAVRYDYWGQGTQVTVSS | low polyreactivity
24 | QVKLVESGGGLVQAGGSLRLSCSASGLTLSGNAMGWYRQAPGKERELVAAITGRGGSTTYADSVKGRFTISRDNAKNTVYLQMNSLKPEDTAVYYCPATRYSWHNRGSRRHRYDYWGQGTQVTVSS | low polyreactivity
25 | QVKLVESGGGLVQAGGSLRLSFAASGFTCNANAMGWYRQAPGQERELVAAISLSGGRTYYADSVKGRFTISRDNAKNTVYLQMNSLKAEDTAVYYCAASPDGSFRRFSRVVSGDYWGQGTQVTVSS | high polyreactivity
26 | QVKLVESGGGLVQAGGSLRLSLQPPDSPSTTMLWDGIDRRLAKKGSWLPVFLPSGGTTYADSVKGRFTISRDNAKYTVYLQMNSLKPEDTAVYYCNADLSDVAVTDHDYWGQVTQVTVSS | low polyreactivity
27 | QVKLVESGGGLVQAGGSLRLSWAASGSILNRYAMGWYRQAPGKERELVAAITGSSGSTYYADSVKGRFTISRDNAKNTVYLQMNSLKPEDTAVYYCATAFRNGRGSYYYWGQGTQVTVSS | high polyreactivity
28 | QVKLVESGGGLVQAGGSLRLTCAASGSTLYAYAMGRYRQAPGKERELVAAISSRAVRTYYADSVKGRFTISRDNAKNTVYLQINSLKPEDTAVYYCAARGQAYSGDRMYYWGQGTQVTVSS | high polyreactivity
29 | QVKLVESGGGLVQAGGTLPITCAASGRTFARYAMVWYRQAPGKERELVSAITGRSGTNTYYADSVKGRFTISRDNAKNTVYLQMNSLKPEDTAVYYCAADLQGYYFRGRWTSYDYWGQGTQVTVSS | high polyreactivity
30 | QVKLVESGGRLVQAGGILRLSSPASGFIFRGYARGWYRQAPGKERELVAAINSGGSTNYADSVKGRFTISRDNAKNTVYLQMIRLKPEETAVYYCAARVKTSYRYLRTYNYWGLGTQVTVSS | high polyreactivity
31 | QVKLVESVGALVQAGGSHRLSCAASGNTFPWYVLGWYRHATGKERELLAAITSSGSTTYYADSVKGRFTISRDNAKNTVYLQMNSLKPDDNAVYYCAARNYGPYDYWGPGTQVTVSS | low polyreactivity
